Patent publication US20220228142A1 (VERTEX PHARMACEUTICALS, published 2022)

Target: 53BP1 (p53-binding protein 1) (human, UniProt Q12888 1-1972, limits assumed)
Test: cell-based or functional assay

Sequence of 53BP1 (p53-binding protein 1) (Q12888 whole entry): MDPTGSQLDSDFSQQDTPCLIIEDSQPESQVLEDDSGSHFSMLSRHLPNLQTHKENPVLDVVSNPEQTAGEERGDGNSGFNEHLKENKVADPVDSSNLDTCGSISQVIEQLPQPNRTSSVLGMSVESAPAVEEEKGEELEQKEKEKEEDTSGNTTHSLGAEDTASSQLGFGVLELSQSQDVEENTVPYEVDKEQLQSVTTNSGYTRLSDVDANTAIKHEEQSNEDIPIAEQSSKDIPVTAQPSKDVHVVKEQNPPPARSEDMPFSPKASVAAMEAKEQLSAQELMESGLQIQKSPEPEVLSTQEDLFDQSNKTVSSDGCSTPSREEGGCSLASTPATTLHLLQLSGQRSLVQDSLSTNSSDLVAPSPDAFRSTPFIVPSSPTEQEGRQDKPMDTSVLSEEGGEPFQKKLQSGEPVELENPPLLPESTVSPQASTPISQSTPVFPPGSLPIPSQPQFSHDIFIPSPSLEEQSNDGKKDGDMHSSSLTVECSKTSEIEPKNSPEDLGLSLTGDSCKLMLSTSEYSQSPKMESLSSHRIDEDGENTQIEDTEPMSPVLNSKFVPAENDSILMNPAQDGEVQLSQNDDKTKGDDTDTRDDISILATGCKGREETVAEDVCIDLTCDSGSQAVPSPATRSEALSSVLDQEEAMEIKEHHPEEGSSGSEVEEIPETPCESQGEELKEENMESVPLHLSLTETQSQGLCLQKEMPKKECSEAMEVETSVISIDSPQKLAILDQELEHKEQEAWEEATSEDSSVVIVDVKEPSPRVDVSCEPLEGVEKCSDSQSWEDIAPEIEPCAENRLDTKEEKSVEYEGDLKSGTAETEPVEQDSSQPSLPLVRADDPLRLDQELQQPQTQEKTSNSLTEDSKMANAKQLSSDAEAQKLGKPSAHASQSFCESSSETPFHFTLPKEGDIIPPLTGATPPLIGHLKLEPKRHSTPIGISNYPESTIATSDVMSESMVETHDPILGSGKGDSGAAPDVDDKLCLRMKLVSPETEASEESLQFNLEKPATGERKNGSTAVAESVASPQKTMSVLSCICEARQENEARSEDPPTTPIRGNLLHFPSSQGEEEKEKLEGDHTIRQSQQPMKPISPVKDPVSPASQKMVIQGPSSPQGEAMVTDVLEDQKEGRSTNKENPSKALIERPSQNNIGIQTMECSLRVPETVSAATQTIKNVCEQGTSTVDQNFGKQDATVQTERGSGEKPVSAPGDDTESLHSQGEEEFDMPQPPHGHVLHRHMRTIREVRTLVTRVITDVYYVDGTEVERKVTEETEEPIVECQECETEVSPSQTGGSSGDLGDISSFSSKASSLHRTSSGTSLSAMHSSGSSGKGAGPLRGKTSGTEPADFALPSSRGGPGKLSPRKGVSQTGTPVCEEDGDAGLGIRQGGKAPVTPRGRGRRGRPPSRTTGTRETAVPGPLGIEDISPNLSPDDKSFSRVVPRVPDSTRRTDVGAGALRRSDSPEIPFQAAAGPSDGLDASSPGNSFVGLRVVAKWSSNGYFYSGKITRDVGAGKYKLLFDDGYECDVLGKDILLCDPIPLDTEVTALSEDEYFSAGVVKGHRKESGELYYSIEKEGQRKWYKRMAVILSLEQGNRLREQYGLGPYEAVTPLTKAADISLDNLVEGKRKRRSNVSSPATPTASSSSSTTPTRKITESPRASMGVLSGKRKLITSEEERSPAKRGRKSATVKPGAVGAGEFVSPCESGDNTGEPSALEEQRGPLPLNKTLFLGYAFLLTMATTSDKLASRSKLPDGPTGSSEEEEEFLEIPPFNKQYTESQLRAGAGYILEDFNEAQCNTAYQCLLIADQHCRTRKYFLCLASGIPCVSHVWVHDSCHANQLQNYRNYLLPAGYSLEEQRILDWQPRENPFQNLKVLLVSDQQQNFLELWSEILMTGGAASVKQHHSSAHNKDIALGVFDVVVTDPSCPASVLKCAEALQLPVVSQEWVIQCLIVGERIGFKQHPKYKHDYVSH

B1: i53 polypeptide (polypeptide inhibitor of 53BP1) (designed binder)
chain: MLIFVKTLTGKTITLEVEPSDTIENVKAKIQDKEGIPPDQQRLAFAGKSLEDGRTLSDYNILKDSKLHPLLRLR
- INDELs due to NHEJ repair (+/-1 nt), T107 RNP+AAV.310, NGS: 1.3 fold reduction
